Data on 8 sequences can be found in publication PMC11096372.

The target of this data set is Cas8b;Cas7b;Cas5b;Cas6b;Cas11b (Synechocystis sp. PCC 6714;Synechocystis sp. PCC 6714;Synechocystis sp. PCC 6714;Synechocystis sp. PCC 6714;Synechocystis sp. PCC 6714) (UniProt A0A068N831+A0A068N458+A0A068N1Y0+A0A068N831). The experiment in a line: EMSA. The following applies: crRNA-loaded Cascade; EMSA: 10 nM labeled DNA, Cascade 0-200 nM, 20 mM HEPES pH 7.5, 100 mM NaCl, 25 C, 1 h; 6% acrylamide gel, 0.5x TBE, cold room; Hill fit.
Take “TAATACGACTCACTATAGGTCGCGGATCCATTTTTATCACCGTGTCCCCAATCTGGATATTTTGTGTCTCGAGCACCACCGCTGAGCAATAACTAGC (double strand) [ATT-PAM 97 bp (synPAM-16)]”: the dissociation constant (Kd) (usually a measure of binding affinity in units of concentration) was found to be 59.7 nM.

Take “TAATACGACTCACTATAGGTCGCGGATCCACTTTTATCACCGTGTCCCCAATCTGGATATTTTGTGTCTCGAGCACCACCGCTGAGCAATAACTAGC (double strand) [ACT-PAM 97 bp (synPAM-12)]”: the Kd was found to be 140 nM.

The sequence “TAATACGACTCACTATAGGTCGCGGATCCACATTTATCACCGTGTCCCCAATCTGGATATTTTGTGTCTCGAGCACCACCGCTGAGCAATAACTAGC (double strand) [ACA-PAM 97 bp (synPAM-9)]” had a Kd of 56.2 nM.

Sequence “TAATACGACTCACTATAGGTCGCGGATCCACCTTTATCACCGTGTCCCCAATCTGGATATTTTGTGTCTCGAGCACCACCGCTGAGCAATAACTAGC (double strand) [ACC-PAM 97 bp (synPAM-11)]” showed a Kd of 58.2 nM.

With “TAATACGACTCACTATAGGTCGCGGATCCATCTTTATCACCGTGTCCCCAATCTGGATATTTTGTGTCTCGAGCACCACCGCTGAGCAATAACTAGC (double strand) [ATC-PAM 97 bp (synPAM-15)]”, the dissociation constant Kd came out at 47.7 nM.

Take “TAATACGACTCACTATAGGTCGCGGATCCATGTTTATCACCGTGTCCCCAATCTGGATATTTTGTGTCTCGAGCACCACCGCTGAGCAATAACTAGC (double strand) [ATG-PAM 97 bp (synPAM-14)]”: the dissociation constant Kd was determined as 18 nM.

Turning to “TAATACGACTCACTATAGGTCGCGGATCCATATTTATCACCGTGTCCCCAATCTGGATATTTTGTGTCTCGAGCACCACCGCTGAGCAATAACTAGC (double strand) [ATA-PAM 97 bp (synPAM-13)]”, the Kd came to 24 nM.

Turning to “TAATACGACTCACTATAGGTCGCGGATCCACGTTTATCACCGTGTCCCCAATCTGGATATTTTGTGTCTCGAGCACCACCGCTGAGCAATAACTAGC (double strand) [ACG-PAM 97 bp (synPAM-10)]”, the Kd was found to be 20.6 nM.
